Measured values reported in publication PMC12238530, “Dynamic SAS-6 phosphorylation aids centrosome duplication and elimination in C. elegans oogenesis” (EMBO Reports, 2025).

What was measured:
[1] = target: T1, GST-SAS-6 full-length (FL) (C. elegans, UniProt O62479 1-492); experiment: pull-down; GST pulldown of purified His-tagged SAS-6 proteins by purified GST-SAS-6 FL or truncations, with or without pre-phosphorylation by CDK1; α-His immunoblot and CBB staining (Fig. 5A, 5C, 5D); settings: both partners purified
T1 construct: SAS-6, C. elegans, full length (1-492); pGEX6P1-GST vector; also called full-length SAS-6 coupled to beads; source: E. coli BL21 (DE3), purified (Glutathione Sepharose 4B); not shown: GST, N-terminal, kept
T1 sequence (looked up): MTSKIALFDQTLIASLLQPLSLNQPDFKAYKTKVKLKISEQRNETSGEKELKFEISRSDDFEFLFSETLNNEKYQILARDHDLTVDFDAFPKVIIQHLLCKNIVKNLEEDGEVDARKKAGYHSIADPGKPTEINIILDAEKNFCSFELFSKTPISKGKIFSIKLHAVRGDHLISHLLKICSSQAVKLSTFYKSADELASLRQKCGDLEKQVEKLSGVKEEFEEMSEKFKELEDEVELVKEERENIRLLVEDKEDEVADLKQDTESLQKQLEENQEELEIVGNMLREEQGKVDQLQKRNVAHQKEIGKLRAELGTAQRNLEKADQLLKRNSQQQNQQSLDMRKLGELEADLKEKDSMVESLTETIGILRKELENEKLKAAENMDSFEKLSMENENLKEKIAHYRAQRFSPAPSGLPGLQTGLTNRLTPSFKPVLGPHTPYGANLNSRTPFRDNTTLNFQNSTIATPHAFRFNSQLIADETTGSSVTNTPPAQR

GST-SAS-6(∆N) = target: T2, GST-SAS-6(∆N) (C. elegans, UniProt O62479 171-492); experiment: bead recruitment assay; GST-SAS-6 FL or truncations coupled to agarose beads; recruitment of mCherry-His tagged SAS-6 C-terminus seen by fluorescence (Fig. 5B, 5E); settings: both partners purified
T2 construct: SAS-6, C. elegans, N-terminal head domain deleted (∆1–170), so residues 171-492; also called GST-SAS-6-ΔN; source: E. coli BL21 (DE3), purified (Glutathione Sepharose 4B); not shown: GST, N-terminal, kept
T2 sequence (looked up): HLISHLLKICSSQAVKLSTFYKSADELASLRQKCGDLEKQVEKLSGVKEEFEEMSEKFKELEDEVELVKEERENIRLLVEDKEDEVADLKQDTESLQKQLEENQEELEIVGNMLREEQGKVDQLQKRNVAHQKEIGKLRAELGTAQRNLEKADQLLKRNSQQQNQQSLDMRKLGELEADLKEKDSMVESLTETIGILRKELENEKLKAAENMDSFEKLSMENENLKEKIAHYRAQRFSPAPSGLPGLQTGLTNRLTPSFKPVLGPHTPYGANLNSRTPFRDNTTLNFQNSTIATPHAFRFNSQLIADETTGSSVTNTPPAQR

binding result [1]: binds | binding result (GST-SAS-6(∆N)): binds
B1: SAS-6-C-mCherry-His (domain or fragment, C. elegans, UniProt O62479 401-492, looked up)
chain: HYRAQRFSPAPSGLPGLQTGLTNRLTPSFKPVLGPHTPYGANLNSRTPFRDNTTLNFQNSTIATPHAFRFNSQLIADETTGSSVTNTPPAQR
notes: SAS-6, C. elegans, C-terminal unstructured region, residues 401-492; Cloned in pET.28a-mCherry; the primer's vector part encodes LFQGP before the NdeI site, so a further N-terminal tag may be there; also called mCherry-His tagged SAS-6 C-terminus; SAS-6 C-terminus; source: E. coli BL21 (DE3), purified (Ni-NTA); not shown: mCherry, C-terminal, kept; His, C-terminal, kept
